The values below come from the supplement of paper PMC5998384.

Data set [1] has as its system HeLa Kyoto. The data set can be described thus: melting temperature (median over replicates), in situ; higher = more thermally stable.
For data set [2], the system named is HeLa Kyoto. The experiment in a line: solubility in G1/S (NP-40 vs SDS abundance) (log2 ratio); higher = more soluble. Particulars: cell cycle stage: G1/S.
For data set [3], the system named is HeLa Kyoto. The experiment in a line: solubility change mitosis vs G1/S (difference of NP-40 vs SDS log2 ratios) (log2 ratio difference); higher = more soluble in mitosis.
Data set [4] deals with HeLa Kyoto. The data set can be described thus: thermal stability score vs G1/S (z-score of summed log2 fold changes over temperatures); higher = more thermally stable than in G1/S.
[5] abbreviates: cell cycle stage: early G1 (4.5 h after nocodazole release).
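Throughout, for melting temperature (median over replicates), in situ: HeLa Kyoto cells synchronized by double thymidine or nocodazole block, proteins quantified by TMT10plex mass spectrometry, three independent biological replicates.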
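Throughout, for solubility change mitosis vs G1/S (difference of NP-40 vs SDS log2 ratios): synchronized HeLa Kyoto cells (double thymidine block for G1/S, nocodazole release for mitosis), protein amounts in NP-40 versus SDS lysates quantified by mass spectrometry, three biological replicates.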
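Throughout, for solubility in G1/S (NP-40 vs SDS abundance): HeLa Kyoto cells arrested at G1/S by double thymidine block, proteins quantified by TMT10plex mass spectrometry in mild NP-40 versus SDS extracts, three biological replicates.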
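Throughout, for thermal stability score vs G1/S (z-score of summed log2 fold changes over temperatures): synchronized HeLa Kyoto cells, proteins quantified by TMT10plex mass spectrometry, three biological replicates, mitosis taken 0.5 h after nocodazole release, G1/S directly after double thymidine block.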

Turning to “MSQVKSSYSYDAPSDFINFSSLDDEGDTQNIDSWFEEKANLENKLLGKNGTGGLFQGKTPLRKANLQQAIVTPLKPVDNTYYKEAEKENLVEQSIPSNACSSLEVEAAISRKTPAQPQRRSLRLSAQKDLEQKEKHHVKMKAKRCATPVIIDEILPSKKMKVSNNKKKPEEEGSAHQDTAEKNASSPEKAKGRHTVPCMPPAKQKFLKSTEEQELEKSMKMQQEVVEMRKKNEEFKKLALAGIGQPVKKSVSQVTKSVDFHFRTDERIKQHPKNQEEYKEVNFTSELRKHPSSPARVTKGCTIVKPFNLSQGKKRTFDETVSTYVPLAQQVEDFHKRTPNRYHLRSKKDDINLLPSKSSVTKICRDPQTPVLQTKHRARAVTCKSTAELEAEELEKLQQYKFKARELDPRILEGGPILPKKPPVKPPTEPIGFDLEIEKRIQERESKKKTEDEHFEFHSRPCPTKILEDVVGVPEKKVLPITVPKSPAFALKNRIRMPTKEDEEEDEPVVIKAQPVPHYGVPFKPQIPEARTVEICPFSFDSRDKERQLQKEKKIKELQKGEVPKFKALPLPHFDTINLPEKKVKNVTQIEPFCLETDRRGALKAQTWKHQLEEELRQQKEAACFKARPNTVISQEPFVPKKEKKSVAEGLSGSLVQEPFQLATEKRAKERQELEKRMAEVEAQKAQQLEEARLQEEEQKKEELARLRRELVHKANPIRKYQGLEIKSSDQPLTVPVSPKFSTRFHC [TPX2]”, the melting temperature came to 53.8 °C in data set [1] (cell cycle stage: G1/S) and 53.1 °C in data set [1] (cell cycle stage: mitosis). The “solubility in G1/S (log2)” value in data set [2] is -0.167. The “solubility change mitosis (log2)” value in data set [3] came out at 0.425. The thermal stability score in data set [4] (setting [5]) is -0.935; in data set [4] (cell cycle stage: mitosis) it was -2.05.
With “MSQVLFHQLVPLQVKCKDCEERRVSIRMSIELQSVSNPVHRKDLVIRLTDDTDPFFLYNLVISEEDFQSLKFQQGLLVDFLAFPQKFIDLLQQCTQEHAKEIPRFLLQLVSPAAILDNSPAFLNVVETNPFKHLTHLSLKLLPGNDVEIKKFLAGCLKCSKEEKLSLMQSLDDATKQLDFTRKTLAEKKQELDKLRNEWASHTAALTNKHSQELTNEKEKALQAQVQYQQQHEQQKKDLEILHQQNIHQLQNRLSELEAANKDLTERKYKGDSTIRELKAKLSGVEEELQRTKQEVLSLRRENSTLDVECHEKEKHVNQLQTKVAVLEQEIKDKDQLVLRTKEAFDTIQEQKVVLEENGEKNQVQLGKLEATIKSLSAELLKANEIIKKLQGDLKTLMGKLKLKNTVTIQQEKLLAEKEEKLQKEQKELQDVGQSLRIKEQEVCKLQEQLEATVKKLEESKQLLKNNEKLITWLNKELNENQLVRKQDVLGPSTTPPAHSSSNTIRSGISPNLNVVDGRLTYPTCGIGYPVSSAFAFQNTFPHSISAKNTSHPGSGTKVQFNLQFTKPNASLGDVQSGATISMPCSTDKENGENVGLESKYLKKREDSIPLRGLSQNLFSNSDHQRDGTLGALHTSSKPTALPSASSAYFPGQLPNS [SASS6]”, the melting temperature was 48.2 °C in data set [1] (cell cycle stage: G1/S) and 49.3 °C in data set [1] (cell cycle stage: mitosis). For the same sequence, the “solubility in G1/S (log2)” value in data set [2] was 0.537. For the same sequence, the “solubility change mitosis (log2)” value in data set [3] was -0.0259. The thermal stability score in data set [4] (setting [5]) is 0.985; in data set [4] (cell cycle stage: mitosis), 0.832.
As for “MSRGPSSAVLPSALGSRKLGPRSLSCLSDLDGGVALEPRACRPPGSPGRAPPPTPAPSGCDPRLRPIILRRARSLPSSPERRQKAAGAPGAACRPGCSQKLRVRFADALGLELAQVKVFNAGDDPSVPLHVLSRLAINSDLCCSSQDLEFTLHCLVPDFPPPVEAADFGERLQRQLVCLERVTCSDLGISGTVRVCNVAFEKQVAVRYTFSGWRSTHEAVARWRGPAGPEGTEDVFTFGFPVPPFLLELGSRVHFAVRYQVAGAEYWDNNDHRDYSLTCRNHALHMPRGECEESWIHFI [PPP1R3D]”, the figures for the melting temperature in data set [1] (cell cycle stage: G1/S) and in data set [1] (cell cycle stage: mitosis) were 51.7 °C and 50.8 °C, respectively. In addition, the “solubility in G1/S (log2)” value in data set [2] stood at 0.0302. In addition, the “solubility change mitosis (log2)” value in data set [3] was -0.164. Also, the thermal stability score was -0.613 in data set [4] (setting [5]) and -0.713 in data set [4] (cell cycle stage: mitosis).
Turning to “MSRIEKMSILGVRSFGIEDKDKQIITFFSPLTILVGPNGAGKTTIIECLKYICTGDFPPGTKGNTFVHDPKVAQETDVRAQIRLQFRDVNGELIAVQRSMVCTQKSKKTEFKTLEGVITRTKHGEKVSLSSKCAEIDREMISSLGVSKAVLNNVIFCHQEDSNWPLSEGKALKQKFDEIFSATRYIKALETLRQVRQTQGQKVKEYQMELKYLKQYKEKACEIRDQITSKEAQLTSSKEIVKSYENELDPLKNRLKEIEHNLSKIMKLDNEIKALDSRKKQMEKDNSELEEKMEKVFQGTDEQLNDLYHNHQRTVREKERKLVDCHRELEKLNKESRLLNQEKSELLVEQGRLQLQADRHQEHIRARDSLIQSLATQLELDGFERGPFSERQIKNFHKLVRERQEGEAKTANQLMNDFAEKETLKQKQIDEIRDKKTGLGRIIELKSEILSKKQNELKNVKYELQQLEGSSDRILELDQELIKAERELSKAEKNSNVETLKMEVISLQNEKADLDRTLRKLDQEMEQLNHHTTTRTQMEMLTKDKADKDEQIRKIKSRHSDELTSLLGYFPNKKQLEDWLHSKSKEINQTRDRLAKLNKELASSEQNKNHINNELKRKEEQLSSYEDKLFDVCGSQDFESDLDRLKEEIEKSSKQRAMLAGATAVYSQFITQLTDENQSCCPVCQRVFQTEAELQEVISDLQSKLRLAPDKLKSTESELKKKEKRRDEMLGLVPMRQSIIDLKEKEIPELRNKLQNVNRDIQRLKNDIEEQETLLGTIMPEEESAKVCLTDVTIMERFQMELKDVERKIAQQAAKLQGIDLDRTVQQVNQEKQEKQHKLDTVSSKIELNRKLIQDQQEQIQHLKSTTNELKSEKLQISTNLQRRQQLEEQTVELSTEVQSLYREIKDAKEQVSPLETTLEKFQQEKEELINKKNTSNKIAQDKLNDIKEKVKNIHGYMKDIENYIQDGKDDYKKQKETELNKVIAQLSECEKHKEKINEDMRLMRQDIDTQKIQERWLQDNLTLRKRNEELKEVEEERKQHLKEMGQMQVLQMKSEHQKLEENIDNIKRNHNLALGRQKGYEEEIIHFKKELREPQFRDAEEKYREMMIVMRTTELVNKDLDIYYKTLDQAIMKFHSMKMEEINKIIRDLWRSTYRGQDIEYIEIRSDADENVSASDKRRNYNYRVVMLKGDTALDMRGRCSAGQKVLASLIIRLALAETFCLNCGIIALDEPTTNLDRENIESLAHALVEIIKSRSQQRNFQLLVITHDEDFVELLGRSEYVEKFYRIKKNIDQCSEIVKCSVSSLGFNVH [RAD50]”, the melting temperature came to 48.8 °C in data set [1] (cell cycle stage: G1/S) and 49.7 °C in data set [1] (cell cycle stage: mitosis). The “solubility in G1/S (log2)” value in data set [2] was -0.129. The “solubility change mitosis (log2)” value in data set [3] was -0.108. The figures for the thermal stability score in data set [4] (setting [5]) and in data set [4] (cell cycle stage: mitosis) were 2.17 and 3.45, respectively.
On to “MSRIESLTRARIDRSRELASKTREKEKMKEAKDARYTNGHLFTTISVSGMTMCYACNKSITAKEALICPTCNVTIHNRCKDTLANCTKVKQKQQKAALLKNNTALQSVSLRSKTTIRERPSSAIYPSDSFRQSLLGSRRGRSSLSLAKSVSTTNIAGHFNDESPLGLRRILSQSTDSLNMRNRTLSVESLIDEAEVIYSELMSDFEMDEKDFAADSWSLAVDSSFLQQHKKEVMKQQDVIYELIQTELHHVRTLKIMTRLFRTGMLEELHLEPGVVQGLFPCVDELSDIHTRFLSQLLERRRQALCPGSTRNFVIHRLGDLLISQFSGPSAEQMCKTYSEFCSRHSKALKLYKELYARDKRFQQFIRKVTRPAVLKRHGVQECILLVTQRITKYPLLISRILQHSHGIEEERQDLTTALGLVKELLSNVDEGIYQLEKGARLQEIYNRMDPRAQTPVPGKGPFGREELLRRKLIHDGCLLWKTATGRFKDVLVLLMTDVLVFLQEKDQKYIFPTLDKPSVVSLQNLIVRDIANQEKGMFLISAAPPEMYEVHTASRDDRSTWIRVIQQSVRTCPSREDFPLIETEDEAYLRRIKMELQQKDRALVELLREKVGLFAEMTHFQAEEDGGSGMALPTLPRGLFRSESLESPRGERLLQDAIREVEGLKDLLVGPGVELLLTPREPALPLEPDSGGNTSPGVTANGEARTFNGSIELCRADSDSSQRDRNGNQLRSPQEEALQRLVNLYGLLHGLQAAVAQQDTLMEARFPEGPERREKLCRANSRDGEAGRAGAAPVAPEKQATELALLQRQHALLQEELRRCRRLGEERATEAGSLEARLRESEQARALLEREAEEARRQLAALGQTEPLPAEAPWARRPVDPRRRSLPAGDALYLSFNPPQPSRGTDRLDLPVTTRSVHRNFEDRERQELGSPEERLQDSSDPDTGSEEEGSSRLSPPHSPRDFTRMQDIPEETESRDGEAVASES [ARHGEF2]”, for which the melting temperature in data set [1] (cell cycle stage: G1/S) and in data set [1] (cell cycle stage: mitosis) was 48.4 °C in each case. Moreover, the “solubility in G1/S (log2)” value in data set [2] was -0.137. In addition, the “solubility change mitosis (log2)” value in data set [3] was -0.0226. Also, the thermal stability score was found to be 0.217 in data set [4] (setting [5]) and 2.08 in data set [4] (cell cycle stage: mitosis).
As to “MSRKGPRAEVCADCSAPDPGWASISRGVLVCDECCSVHRSLGRHISIVKHLRHSAWPPTLLQMVHTLASNGANSIWEHSLLDPAQVQSGRRKANPQDKVHPIKSEFIRAKYQMLAFVHKLPCRDDDGVTAKDLSKQLHSSVRTGNLETCLRLLSLGAQANFFHPEKGTTPLHVAAKAGQTLQAELLVVYGADPGSPDVNGRTPIDYARQAGHHELAERLVECQYELTDRLAFYLCGRKPDHKNGHYIIPQMADSLDLSELAKAAKKKLQALSNRLFEELAMDVYDEVDRRENDAVWLATQNHSTLVTERSAVPFLPVNPEYSATRNQGRQKLARFNAREFATLIIDILSEAKRRQQGKSLSSPTDNLELSLRSQSDLDDQHDYDSVASDEDTDQEPLRSTGATRSNRARSMDSSDLSDGAVTLQEYLELKKALATSEAKVQQLMKVNSSLSDELRRLQREIHKLQAENLQLRQPPGPVPTPPLPSERAEHTPMAPGGSTHRRDRQAFSMYEPGSALKPFGGPPGDELTTRLQPFHSTELEDDAIYSVHVPAGLYRIRKGVSASAVPFTPSSPLLSCSQEGSRHTSKLSRHGSGADSDYENTQSGDPLLGLEGKRFLELGKEEDFHPELESLDGDLDPGLPSTEDVILKTEQVTKNIQELLRAAQEFKHDSFVPCSEKIHLAVTEMASLFPKRPALEPVRSSLRLLNASAYRLQSECRKTVPPEPGAPVDFQLLTQQVIQCAYDIAKAAKQLVTITTREKKQ [GIT1]”, the melting temperature in data set [1] (cell cycle stage: G1/S) turned out to be 48.4 °C; in data set [1] (cell cycle stage: mitosis) it was 50 °C. The “solubility in G1/S (log2)” value in data set [2] worked out at 0.235. Besides, the “solubility change mitosis (log2)” value in data set [3] was -0.123. The thermal stability score in data set [4] (setting [5]) amounted to 0.709; in data set [4] (cell cycle stage: mitosis) it was 0.998.
As to “MSRPLITRSPASPLNNQGIPTPAQLTKSNAPVHIDVGGHMYTSSLATLTKYPESRIGRLFDGTEPIVLDSLKQHYFIDRDGQMFRYILNFLRTSKLLIPDDFKDYTLLYEEAKYFQLQPMLLEMERWKQDRETGRFSRPCECLVVRVAPDLGERITLSGDKSLIEEVFPEIGDVMCNSVNAGWNHDSTHVIRFPLNGYCHLNSVQVLERLQQRGFEIVGSCGGGVDSSQFSEYVLRRELRRTPRVPSVIRIKQEPLD [KCTD1]”, the melting temperature in data set [1] (cell cycle stage: G1/S) is 58.7 °C; in data set [1] (cell cycle stage: mitosis), 55.9 °C. Also, the “solubility in G1/S (log2)” value in data set [2] stood at 0.464. Besides, the “solubility change mitosis (log2)” value in data set [3] was -0.267. Moreover, the thermal stability score in data set [4] (setting [5]) came to 0.414; in data set [4] (cell cycle stage: mitosis), 0.162.
Consider “MSRPRKRLAGTSGSDKGLSGKRTKTENSGEALAKVEDSNPQKTSATKNCLKNLSSHWLMKSEPESRLEKGVDVKFSIEDLKAQPKQTTCWDGVRNYQARNFLRAMKLGEEAFFYHSNCKEPGIAGLMKIVKEAYPDHTQFEKNNPHYDPSSKEDNPKWSMVDVQFVRMMKRFIPLAELKSYHQAHKATGGPLKNMVLFTRQRLSIQPLTQEEFDFVLSLEEKEPS [THYN1]”, for which the melting temperature was determined as 47.3 °C in data set [1] (cell cycle stage: G1/S) and 51.3 °C in data set [1] (cell cycle stage: mitosis). For the same sequence, the “solubility in G1/S (log2)” value in data set [2] amounted to 0.389. Also, in data set [3], the “solubility change mitosis (log2)” value was determined as 0.199. The thermal stability score is -1.19 in data set [4] (setting [5]) and -1.36 in data set [4] (cell cycle stage: mitosis).
